US20050196753

Tested on: recombinant Histone H3

human coactivator-associated arginine methyltransferase 1 (hCARM1), full-length, purified from baculovirus infected insect cells
methylation of Histone H3 (in vitro methylation assay, SDS-PAGE and film): hCARM1 methylates Histone H3 efficiently
